Test results from patent publication US20170183380A1 (published 2017).
Where no end group is shown, it is not given here.

Assays:
[1] = molecular target: HER2 on TUBO cells (mice cell line), HER2-overexpressing (UniProt P06494 23-1257); assay: cell-based or functional assay
[2] = molecular target: HER2 on HER2-overexpressing breast cancer cells (SK-Br-3: human cell line) (human, UniProt P04626 23-1255); assay: cell-based or functional assay

Chain of HER2 on TUBO cells (mice cell line), HER2-overexpressing (P06494 23-1257): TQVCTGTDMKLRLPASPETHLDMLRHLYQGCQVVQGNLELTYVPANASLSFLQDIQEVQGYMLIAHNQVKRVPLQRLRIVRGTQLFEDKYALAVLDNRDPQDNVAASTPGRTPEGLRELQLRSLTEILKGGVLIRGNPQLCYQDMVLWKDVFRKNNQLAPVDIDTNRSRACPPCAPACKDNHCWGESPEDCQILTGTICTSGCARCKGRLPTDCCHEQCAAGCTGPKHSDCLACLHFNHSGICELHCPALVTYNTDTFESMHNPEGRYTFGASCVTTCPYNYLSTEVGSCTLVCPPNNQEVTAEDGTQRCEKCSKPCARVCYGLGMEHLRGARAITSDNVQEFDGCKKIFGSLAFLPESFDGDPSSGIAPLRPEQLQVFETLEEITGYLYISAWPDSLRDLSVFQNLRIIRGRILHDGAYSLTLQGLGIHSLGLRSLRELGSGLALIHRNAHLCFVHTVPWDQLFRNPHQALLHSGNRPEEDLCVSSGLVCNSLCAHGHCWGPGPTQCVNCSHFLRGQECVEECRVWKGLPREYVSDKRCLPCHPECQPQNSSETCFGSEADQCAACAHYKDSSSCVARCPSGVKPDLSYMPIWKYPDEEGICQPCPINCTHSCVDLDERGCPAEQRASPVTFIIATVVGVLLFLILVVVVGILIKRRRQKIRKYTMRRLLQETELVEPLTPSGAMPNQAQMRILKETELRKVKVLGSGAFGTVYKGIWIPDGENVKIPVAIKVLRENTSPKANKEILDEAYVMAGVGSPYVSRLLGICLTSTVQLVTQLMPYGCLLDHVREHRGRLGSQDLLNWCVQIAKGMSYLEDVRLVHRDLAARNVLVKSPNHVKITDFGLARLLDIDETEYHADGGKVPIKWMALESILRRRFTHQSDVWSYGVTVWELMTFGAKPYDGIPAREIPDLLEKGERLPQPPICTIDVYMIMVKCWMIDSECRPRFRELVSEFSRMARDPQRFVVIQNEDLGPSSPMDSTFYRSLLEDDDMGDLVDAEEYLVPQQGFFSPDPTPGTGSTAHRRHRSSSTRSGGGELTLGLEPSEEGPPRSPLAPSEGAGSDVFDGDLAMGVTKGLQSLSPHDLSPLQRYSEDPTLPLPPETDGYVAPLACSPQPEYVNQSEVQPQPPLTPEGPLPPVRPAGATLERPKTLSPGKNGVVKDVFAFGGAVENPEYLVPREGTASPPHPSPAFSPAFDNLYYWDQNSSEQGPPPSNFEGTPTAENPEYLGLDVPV

Binder | IC50 (cytotoxicity, MTT assay), TUBO cells, 3 hours [1] [µM] | IC50 (cytotoxicity, MTT assay), TUBO cells, 6 hours [1] [µM] | IC50 (cytotoxicity, MTT assay), SKBR3 cells, 3 hours [2] [µM] | IC50 (cytotoxicity, MTT assay), SKBR3 cells, 6 hours [2] [µM]
C(Maleimide‑PEG2000‑DSPE)GGGLTVSPWY (not fully specified; also: order of spacer and peptide assumed) [LTVSPWY (SEQ ID NO: 1) peptide-liposome, post inserted liposome 200 Ligand] | 6.5 | 2.5 | 15.2 | 4.9
C(Maleimide‑PEG2000‑DSPE)GGGLTVSPWY (not fully specified; also: order of spacer and peptide assumed) [LTVSPWY (SEQ ID NO: 1) peptide-liposome, post inserted liposome 25 Ligand] | 11.1 | 5.5 | 24.9 | 12.8
C(Maleimide‑PEG2000‑DSPE)GGGLTVSPWY (not fully specified; also: order of spacer and peptide assumed) [LTVSPWY (SEQ ID NO: 1) peptide-liposome, post inserted liposome 50 Ligand] | 9.7 | 4.6 | 21.5 | 10.4
C(Maleimide‑PEG2000‑DSPE)GGGLTVSPWY (not fully specified; also: order of spacer and peptide assumed) [LTVSPWY (SEQ ID NO: 1) peptide-liposome, post inserted liposome 100 Ligand] | 8.08 | 3.9 | 17.9 | 6.07
